# Assay results taken from IntAct's records for PubMed 20531392.
# B1: Peroxisomal biogenesis factor 19 (Homo sapiens), P40855 (parent)
# chain: MAAAEEGCSVGAEADRELEELLESALDDFDKAKPSPAPPSTTTAPDASGPQKRSPGDTAKDALFASQEKFFQELFDSELASQATAEFEKAMKELAEEEPHLVEQFQKLSEAAGRVGSDMTSQQEFTSCLKETLSGLAKNATDLQNSSMSEEELTKAMEGLGMDEGDGEGNILPIMQSIMQNLLSKDVLYPSLKEITEKYPEWLQSHRESLPPEQFEKYQEQHSVMCKICEQFEAETPTDSETTQKARFEMVLDLMQQLQDLGHPPKELAGEMPPGLNFDLDALNLSGPPGASGEQCLIM
# B2: Peroxisomal biogenesis factor 19 (Homo sapiens), P40855 (parent)
# chain: B1 chain
# partner: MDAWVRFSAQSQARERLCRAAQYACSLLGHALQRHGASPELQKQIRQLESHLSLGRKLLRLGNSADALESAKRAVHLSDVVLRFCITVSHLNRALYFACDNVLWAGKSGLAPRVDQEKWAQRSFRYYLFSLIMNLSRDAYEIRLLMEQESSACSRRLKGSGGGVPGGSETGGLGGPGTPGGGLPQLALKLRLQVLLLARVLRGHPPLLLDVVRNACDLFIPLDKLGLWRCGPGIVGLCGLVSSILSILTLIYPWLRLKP
# Variants of: B1
# Settings: with pex13_human PEX13, Q92968
# Chain of pex13_human PEX13, Q92968 (Q92968 whole entry): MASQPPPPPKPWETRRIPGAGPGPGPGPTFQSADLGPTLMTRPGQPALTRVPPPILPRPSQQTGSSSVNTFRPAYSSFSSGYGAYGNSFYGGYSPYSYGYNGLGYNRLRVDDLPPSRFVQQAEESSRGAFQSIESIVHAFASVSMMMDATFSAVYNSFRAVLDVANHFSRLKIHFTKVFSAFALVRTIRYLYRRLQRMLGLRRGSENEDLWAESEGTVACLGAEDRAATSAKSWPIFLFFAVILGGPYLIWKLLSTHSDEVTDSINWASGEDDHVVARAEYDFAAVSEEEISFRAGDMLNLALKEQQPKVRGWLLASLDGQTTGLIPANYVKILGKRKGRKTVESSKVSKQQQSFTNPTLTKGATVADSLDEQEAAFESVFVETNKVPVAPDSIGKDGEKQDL
row,effect of a mutation on the interaction,Variant
1,decreasing interaction,L182P

# Variants of: B1
# Settings: with pex13_human PEX13, Q92968
# Remark: another data set of the same source
row,effect of a mutation on the interaction,Variant
1,disrupting interaction,L182W

# Variants of: B1
# Settings: with pex13_human PEX13, Q92968
# Remark: another data set of the same source
row,effect of a mutation on the interaction,Variant
1,disrupting interaction,I178P

# Variants of: B1
# Settings: with pex13_human PEX13, Q92968
# Remark: another data set of the same source
row,effect of a mutation on the interaction,Variant
1,decreasing interaction,I178W

# Variants of: B2
# Settings: with px11b_human PEX11B
row,effect of a mutation on the interaction,Variant
1,disrupting interaction,I178W

# Variants of: B2
# Settings: with px11b_human PEX11B
# Remark: another data set of the same source
row,effect of a mutation on the interaction,Variant
1,disrupting interaction,L182P
